This note sets out measurements from publication PMC2662490.

The target in the experiment is FXR1P Nt-KH2–His6 (human). Kind of experiment: SAXS.

The stoichiometry N is the number of molecules, sites or subunits per partner or assembly. FXR1P Nt-KH2–His6 (domain or fragment) came in with a stoichiometry N of 2.
